Experimental data: doi:10.1101/2021.07.22.453419 (2021)

Molecular target: T1, Papain (E.C.3.4.22.2, from papaya latex) (papaya, UniProt P00784 134-345)
T1 chain: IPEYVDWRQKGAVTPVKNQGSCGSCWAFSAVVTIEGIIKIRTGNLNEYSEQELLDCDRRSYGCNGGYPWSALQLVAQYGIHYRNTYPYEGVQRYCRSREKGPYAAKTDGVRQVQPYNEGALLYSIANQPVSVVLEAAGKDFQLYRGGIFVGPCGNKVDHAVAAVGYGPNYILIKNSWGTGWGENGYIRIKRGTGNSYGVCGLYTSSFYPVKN

- Ki: 14.7 nM
B1: tomato cystatin SlCYS8 (natural protein)
chain: NPGGITNVPFPNLPQFKDLARFAVQDYNKKENAHLEFVENLNVKEQVVAGIIYYITLVATDAGKKKIYETKILVKGWENFKEVQEFKLVGDATK
